{
  "source": "patent US20080039616A1",
  "molecular_target": "FLAG® HA BAP fusion protein [phosphatase: P00634]",
  "experiment": "immunoprecipitation of purified FLAG HA BAP in 3 extraction buffers, blot with anti-HA-peroxidase",
  "data": [
    {"substance": "ANTI-FLAG® affinity resin (antibody)", "values": [
      {"measurement": "protein recovery (% of input protein) (% of input protein)", "value": "> 70"}
    ]}
  ]
}
